Experimental data published in patent US20220098307A1 (WUHAN YZY BIOPHARMA, published 2022).
Changes are numbered by the printed parent chain. Names and notes keep the numbering of the source.

B1: CD38-M1-FES (bispecific antibody, human IgG1, kappa)
chain: QVQLVESGGGVVQPGRSLRLSCAASGFTFSTYAMNWVRQAPGKGLEWVARIRSKYNNYATYYADSVKDRFTISRDDSKNTLYLQMNSLRAEDTAVYYCARHGNFGNSYVSWFAYWGQGTLVTVSSGGGGSGGGGSGGGGSQTVVTQEPSLTVSPGGTVTLTCRSSTGAVTTSNYANWVQQKPGQAPRGLIGGTNKRAPGVPARFSGSLLGGKAALTLSGVQPEDEAEYYCALWYSNLWVFGGGTKVEIKGGGGSDKTHTCPPCPAPEFEGGPSVFLFPPKPKDTLMISRTPEVTCVVVDVSHEDPEVKFNWYVDGVEVHNAKTKPREEQYNSTYRVVSVLTVLHQDWLNGKEYKCKVSNKALPASIEKTISKAKGQPREPQVCTLPPSRDELTKNQVSLSCAVKGFYPSDIAVEWESNGQPENNYKTTPPVLDSDGSFFLVSKLTVDKSRWQQGNVFSCSVMHEALHNHYTQKSLSLSPGK
heavy: EVQLLESGGGLVQPGGSLRLSCAVSGFTFNSFAMSWVRQAPGKGLEWVSAISGSGGGTYYADSVKGRFTISRDNSKNTLYLQMNSLRAEDTAVYFCAKDKILWFGEPVFDYWGQGTLVTVSSASTKGPSVFPLAPSSKSTSGGTAALGCLVKDYFPEPVTVSWNSGALTSGVHTFPAVLQSSGLYSLSSVVTVPSSSLGTQTYICNVNHKPSNTKVDKKVEPKSCDKTHTCPPCPAPEFEGGPSVFLFPPKPKDTLMISRTPEVTCVVVDVSHEDPEVKFNWYVDGVEVHNAKTKPREEQYNSTYRVVSVLTVLHQDWLNGKEYKCKVSNKALPASIEKTISKAKGQPREPQVYTLPPCRDELTKNQVSLWCLVKGFYPSDIAVEWESNGQPENNYKTTPPVLDSDGSFFLYSKLTVDKSRWQQGNVFSCSVMHEALHNHYTQKSLSLSPGK
light: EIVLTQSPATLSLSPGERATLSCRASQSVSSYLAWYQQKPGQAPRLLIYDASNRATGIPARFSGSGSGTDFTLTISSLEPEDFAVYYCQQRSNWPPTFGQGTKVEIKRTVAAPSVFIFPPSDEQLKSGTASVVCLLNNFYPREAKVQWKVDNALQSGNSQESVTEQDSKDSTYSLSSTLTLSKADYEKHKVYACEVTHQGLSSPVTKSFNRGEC
notes: structure 1; CD38 x CD3; CH2 FES
B2: CD38-M1-FES-1 (bispecific antibody)
chain: not shown
heavy: B1 heavy
light: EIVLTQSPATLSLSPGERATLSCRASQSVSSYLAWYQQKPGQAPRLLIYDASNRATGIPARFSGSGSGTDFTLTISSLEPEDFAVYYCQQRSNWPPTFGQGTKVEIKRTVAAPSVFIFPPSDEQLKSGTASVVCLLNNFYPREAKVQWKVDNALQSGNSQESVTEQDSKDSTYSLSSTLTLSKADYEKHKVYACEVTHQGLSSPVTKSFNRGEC
notes: structure 1; CD38 x CD3 (I2C); CH2 FES
B3: M1IC-WT-1 (bispecific antibody, human IgG1, kappa)
chain: not shown
heavy: not shown
light: DVVMTQTPLSLPVSLGDQASISCRSSQSLVHSNGNTYLRWYLQKPGQSPKVLIYKVSNRFSGVPDRFSGSGSGTDFTLKISRVEAEDLGVYFCSQSTHVPWTFGGGTKLEIKRTVAAPSVFIFPPSDEQLKSGTASVVCLLNNFYPREAKVQWKVDNALQSGNSQESVTEQDSKDSTYSLSSTLTLSKADYEKHKVYACEVTHQGLSSPVTKSFNRGEC
notes: structure 1 isotype control; CH2 WT
B4: M1IC-AAG-1 (bispecific antibody, human IgG1, kappa, L234A L235A)
chain: B1 chain with F268A, E269A, P363G, S365P
heavy: not shown
light: B3 light
notes: structure 1 isotype control; CH2 AAG
B5: M1IC-FES-1 (bispecific antibody, human IgG1, kappa)
chain: B1 chain
heavy: EVKLDETGGGLVQPGRPMKLSCVASGFTFSDYWMNWVRQSPEKGLEWVAQIRNKPYNYETYYSDSVKGRFTISRDDSKSSVYLQMNNLRVEDMGIYYCTGSYYGMDYWGQGTSVTVSSASTKGPSVFPLAPSSKSTSGGTAALGCLVKDYFPEPVTVSWNSGALTSGVHTFPAVLQSSGLYSLSSVVTVPSSSLGTQTYICNVNHKPSNTKVDKKVEPKSCDKTHTCPPCPAPEFEGGPSVFLFPPKPKDTLMISRTPEVTCVVVDVSHEDPEVKFNWYVDGVEVHNAKTKPREEQYNSTYRVVSVLTVLHQDWLNGKEYKCKVSNKALPASIEKTISKAKGQPREPQVYTLPPCRDELTKNQVSLWCLVKGFYPSDIAVEWESNGQPENNYKTTPPVLDSDGSFFLYSKLTVDKSRWQQGNVFSCSVMHEALHNHYTQKSLSLSPGK
light: B3 light
notes: structure 1 isotype control; CH2 FES; also called MlIC-FES-1
B6: M1IC-NQ (bispecific antibody, human IgG1, kappa, N297Q)
chain: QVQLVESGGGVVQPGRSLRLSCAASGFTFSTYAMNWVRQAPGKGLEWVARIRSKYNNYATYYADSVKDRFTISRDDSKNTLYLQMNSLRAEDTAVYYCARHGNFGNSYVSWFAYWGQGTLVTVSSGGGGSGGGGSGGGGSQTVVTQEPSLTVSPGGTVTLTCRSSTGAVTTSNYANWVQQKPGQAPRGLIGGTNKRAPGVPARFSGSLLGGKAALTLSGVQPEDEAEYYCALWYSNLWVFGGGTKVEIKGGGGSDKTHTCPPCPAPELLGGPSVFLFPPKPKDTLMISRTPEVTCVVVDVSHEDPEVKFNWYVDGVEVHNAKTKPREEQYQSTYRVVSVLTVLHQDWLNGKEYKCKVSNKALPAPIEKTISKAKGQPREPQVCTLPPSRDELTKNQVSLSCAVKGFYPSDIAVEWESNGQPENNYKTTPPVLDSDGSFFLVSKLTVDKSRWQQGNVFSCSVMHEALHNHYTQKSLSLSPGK
heavy: B5 heavy with F235L, E236L, N298Q, S332P
light: B3 light
notes: structure 1 isotype control; CH2 N297Q
B7: CD38-M1-G2 (bispecific antibody, human IgG1, kappa)
chain: QVQLVESGGGVVQPGRSLRLSCAASGFTFSTYAMNWVRQAPGKGLEWVARIRSKYNNYATYYADSVKDRFTISRDDSKNTLYLQMNSLRAEDTAVYYCARHGNFGNSYVSWFAYWGQGTLVTVSSGGGGSGGGGSGGGGSQTVVTQEPSLTVSPGGTVTLTCRSSTGAVTTSNYANWVQQKPGQAPRGLIGGTNKRAPGVPARFSGSLLGGKAALTLSGVQPEDEAEYYCALWYSNLWVFGGGTKVEIKGRGRGSDKTHTCPPCPAPPVAGPSVFLFPPKPKDTLMISRTPEVTCVVVDVSHEDPEVQFNWYVDGVEVHNAKTKPREEQFNSTFRVVSVLTVVHQDWLNGKEYKCKVSNKGLPAPIEKTISKTKGQPREPQVCTLPPSRDELTKNQVSLSCAVKGFYPSDIAVEWESNGQPENNYKTTPPVLDSDGSFFLVSKLTVDKSRWQQGNVFSCSVMHEALHNHYTQKSLSLSPGK
heavy: EVQLLESGGGLVQPGGSLRLSCAVSGFTFNSFAMSWVRQAPGKGLEWVSAISGSGGGTYYADSVKGRFTISRDNSKNTLYLQMNSLRAEDTAVYFCAKDKILWFGEPVFDYWGQGTLVTVSSASTKGPSVFPLAPSSKSTSGGTAALGCLVKDYFPEPVTVSWNSGALTSGVHTFPAVLQSSGLYSLSSVVTVPSSSLGTQTYICNVNHKPSNTKVDKKVEPKSCDKTHTCPPCPAPPVAGPSVFLFPPKPKDTLMISRTPEVTCVVVDVSHEDPEVQFNWYVDGVEVHNAKTKPREEQFNSTFRVVSVLTVVHQDWLNGKEYKCKVSNKGLPAPIEKTISKTKGQPREPQVYTLPPCRDELTKNQVSLWCLVKGFYPSDIAVEWESNGQPENNYKTTPPVLDSDGSFFLYSKLTVDKSRWQQGNVFSCSVMHEALHNHYTQKSLSLSPGK
light: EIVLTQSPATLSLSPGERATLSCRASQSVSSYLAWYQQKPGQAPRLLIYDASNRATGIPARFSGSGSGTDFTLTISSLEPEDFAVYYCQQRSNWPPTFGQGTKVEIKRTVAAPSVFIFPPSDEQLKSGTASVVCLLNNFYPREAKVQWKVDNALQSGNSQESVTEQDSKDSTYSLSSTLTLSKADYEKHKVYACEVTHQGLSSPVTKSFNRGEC
notes: structure 1; CD38 x CD3; CH2 G2CH2
B8: CD38-M1-G2-1 (bispecific antibody)
chain: not shown
heavy: B7 heavy
light: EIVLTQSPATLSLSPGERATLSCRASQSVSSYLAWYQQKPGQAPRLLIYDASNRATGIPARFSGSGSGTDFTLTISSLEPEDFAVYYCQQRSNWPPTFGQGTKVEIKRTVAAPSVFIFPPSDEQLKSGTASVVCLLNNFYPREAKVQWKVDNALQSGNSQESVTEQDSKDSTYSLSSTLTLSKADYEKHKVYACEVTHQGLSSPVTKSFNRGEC
notes: structure 1; CD38 x CD3 (I2C); CH2 G2CH2
B9: CD38-M1-SG2 (bispecific antibody, human IgG1, kappa)
chain: B7 chain with C264S
heavy: B7 heavy with C234S
light: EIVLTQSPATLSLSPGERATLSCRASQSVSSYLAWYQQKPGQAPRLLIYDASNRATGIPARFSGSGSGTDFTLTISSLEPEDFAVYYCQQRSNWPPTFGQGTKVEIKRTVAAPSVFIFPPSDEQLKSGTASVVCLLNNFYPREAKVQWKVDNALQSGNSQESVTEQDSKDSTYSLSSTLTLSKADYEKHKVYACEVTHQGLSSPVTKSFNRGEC
notes: structure 1; CD38 x CD3; CH2 SG2CH2
B10: CD38-M1-PG2 (bispecific antibody)
chain: not shown
heavy: B7 heavy with C234P
light: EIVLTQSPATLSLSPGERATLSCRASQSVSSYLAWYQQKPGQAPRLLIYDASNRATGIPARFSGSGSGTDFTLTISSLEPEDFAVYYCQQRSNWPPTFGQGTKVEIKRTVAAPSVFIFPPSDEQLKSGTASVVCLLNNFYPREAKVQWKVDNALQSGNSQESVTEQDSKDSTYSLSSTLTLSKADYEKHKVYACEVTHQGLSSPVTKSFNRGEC
notes: structure 1; CD38 x CD3 (I2C); CH2 PG2CH2
B11: CD38-M1-AG2 (bispecific antibody)
chain: not shown
heavy: B7 heavy with C234A
light: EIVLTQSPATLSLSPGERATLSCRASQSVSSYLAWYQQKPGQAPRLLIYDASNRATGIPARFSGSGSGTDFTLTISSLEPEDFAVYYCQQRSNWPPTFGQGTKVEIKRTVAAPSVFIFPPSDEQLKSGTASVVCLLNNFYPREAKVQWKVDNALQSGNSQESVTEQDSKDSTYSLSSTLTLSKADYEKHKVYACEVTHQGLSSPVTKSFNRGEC
notes: structure 1; CD38 x CD3 (I2C); CH2 AG2CH2
B12: CD38-M1-G2D (bispecific antibody)
chain: not shown
heavy: B7 heavy with D274A
light: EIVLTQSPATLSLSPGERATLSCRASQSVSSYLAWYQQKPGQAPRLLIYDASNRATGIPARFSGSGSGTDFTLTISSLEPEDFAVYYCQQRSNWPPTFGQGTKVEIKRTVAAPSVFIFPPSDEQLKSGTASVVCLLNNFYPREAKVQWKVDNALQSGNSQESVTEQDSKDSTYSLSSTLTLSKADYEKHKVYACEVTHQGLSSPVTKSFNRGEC
notes: structure 1; CD38 x CD3 (I2C); CH2 G2DCH2
B13: CD38-M1-DG2 (bispecific antibody)
chain: not shown
heavy: B7 heavy with D269A
light: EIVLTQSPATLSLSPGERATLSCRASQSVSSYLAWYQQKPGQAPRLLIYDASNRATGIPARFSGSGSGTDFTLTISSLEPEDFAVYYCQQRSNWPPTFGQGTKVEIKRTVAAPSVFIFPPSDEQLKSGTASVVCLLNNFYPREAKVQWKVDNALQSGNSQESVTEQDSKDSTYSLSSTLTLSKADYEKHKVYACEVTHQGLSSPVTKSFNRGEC
notes: structure 1; CD38 x CD3 (I2C); CH2 DG2CH2
B14: CD38-M1-SG2-3 (bispecific antibody)
chain: not shown
heavy: B7 heavy with C234S
light: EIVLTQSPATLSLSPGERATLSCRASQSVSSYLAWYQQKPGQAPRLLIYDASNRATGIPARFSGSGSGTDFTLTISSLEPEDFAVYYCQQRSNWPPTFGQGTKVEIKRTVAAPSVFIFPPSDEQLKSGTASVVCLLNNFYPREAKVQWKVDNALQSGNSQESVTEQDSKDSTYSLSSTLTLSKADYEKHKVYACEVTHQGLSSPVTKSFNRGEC
notes: structure 1; CD38 x CD3 (I2C); CH2 SG2CH2
B15: CD38-M1-DG2D (bispecific antibody)
chain: not shown
heavy: B7 heavy with D269A, D274A
light: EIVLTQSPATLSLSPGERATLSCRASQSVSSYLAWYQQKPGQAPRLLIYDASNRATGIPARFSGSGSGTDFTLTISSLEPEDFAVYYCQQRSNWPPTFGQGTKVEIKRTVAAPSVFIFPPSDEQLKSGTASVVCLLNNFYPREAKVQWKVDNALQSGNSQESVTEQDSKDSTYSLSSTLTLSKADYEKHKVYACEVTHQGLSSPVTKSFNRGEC
notes: structure 1; CD38 x CD3 (I2C); CH2 DG2DCH2
B16: CD38-M1-GG2 (bispecific antibody)
chain: not shown
heavy: B7 heavy with C234G
light: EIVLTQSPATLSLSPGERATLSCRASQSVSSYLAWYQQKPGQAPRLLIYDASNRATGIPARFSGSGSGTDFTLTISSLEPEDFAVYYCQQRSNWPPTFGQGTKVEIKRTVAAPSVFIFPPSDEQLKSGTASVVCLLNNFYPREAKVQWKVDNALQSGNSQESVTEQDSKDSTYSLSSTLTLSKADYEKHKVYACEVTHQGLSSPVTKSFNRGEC
notes: structure 1; CD38 x CD3 (I2C); CH2 GG2CH2

Tests used:
Monkey CD3 = target: T1, Monkey CD3 (monkey); assay: flow cytometry, monkey T cells
T1 construct: whole, on cells; also called CD3 of monkey CD3 positive T cells

Human CD3ε = target: T2, Human CD3ε (human, UniProt P07766 23-126); assay: flow cytometry, human T cells
T2 construct: CD3 on T cells isolated from human whole blood
Description: 1) Cell preparation: T cells isolated from CD3-positive human whole blood were used for a CD3 end affinity detection of multifunctional antibody molecule; positive tumor cells of corresponding antigen were used for detecting affinity of tumor antigen; for example, CD38-positive MM. 1S cells (purchased from the Cell Resource Center of Shanghai Institutes for Biological Sciences, Chinese Academy of Sciences) or RPMI 8226 cells (purchased from the Cell Resource Center of Shanghai Institutes for Biological Sciences, Chinese Academy of Sciences) were used for CD38 antigen detection, and PD-L1 positive H358 cells (purchased from the Cell Resource Center of Shanghai Institutes for Biological Sciences, Chinese Academy of Sciences) were used for PD-L1 antigen detection, and so on. The cells were resuspended with 1% FBS-PBS, adjusted to a density of 4×10⁶/ml, and 50 μl of cells were taken from each well, and then plated at 2×10⁵ per well. Cell plating was operated on ice
2) Addition of the antibody: according to the experimental design, the antibody was diluted gradually, and dilution of antibody was operated on ice. For example, the initial concentration of antibody for dilution was 3000 nM, and the antibody was diluted by 3 times with 11 concentration gradients. The diluted antibody was added to a cell well at 50 μl per well, mixed well, and shaked and incubated at 4° C. 1100 rpm/min for 2 h; after washing, the cells were resuspend in 1% FBS-PBS, and a diluted secondary antibody PE anti-human IgG FC (Biolegend, 409304) was added with a final concentration of 8 ug/ml and a volume of 50 μl/well. At the same time, a well only added with cells and secondary antibody was set as a control, the components were mixed well, and incubated under shaking at 1100 rpm/min at 4° C. for 1 h;
5) Data analysis: the data was analyzed by a flow analysis software FlowJo 7.6 thereby obtaining an average fluorescence intensity of the specific antibody concentration, plotted by a Graphpad Prism 5 with the antibody concentration (nM) as an abscissa and the average fluorescence intensity as an ordinate; the EC50 value was calculated by the method of One site—Specific binding, and the EC50 value indicated the cell affinity of the antibody to the corresponding target antigen.

| Binder | EC50 (Monkey CD3) [nM] | EC50 (Human CD3ε) [nM] |
| --- | --- | --- |
| B1 | 291 |  |
| B2 | 9.18 |  |
| B3 | 174 | 153 |
| B4 | 205 | 152 |
| B5 | 295 | 170 |
| B6 | 378 | 194 |
| B7 | 142 |  |
| B8 | 12.6 |  |
| B9 | 159 |  |
| B10 | 11.5 |  |
| B11 | 10.2 |  |
| B12 | 10.1 |  |
| B13 | 11 |  |
| B14 | 7.59 |  |
| B15 | 7.05 |  |
| B16 | 10.4 |  |
